# B1: c19s130Fc (Fc fusion)
# chain: ELLDPCGYISPESPVVQLHSNFTAVCVLKEKCMDYFHVNANYIVWKTNHFTIPKEQYTIINRTASSVTFTDIASLNIQLTCNILTFGQLEQNVYGITIISGLPPEKPKNLSCIVNEGKKMRCEWDGGRETHLETNFTLKSEWATHKFADCKAKRDTPTSCTVDYSTVYFVNIEVWVEAENALGKVTSDHINFDPVYKVKPNPPHNLSVINSEELSSILKLTWTNPSIKSVIILKYNIQYRTKDASTWSQIPPEDTASTRSSFTVQDLKPFTEYVFRIRCMKEDGKGYWSDWSEEASGITYEDDVQFVESGGGSVHAGGSLRLNCATSGYIYSTYCMGWFRQAPGKEREGVAHIYTNSGRTYYADSVKGRFTISQDNAKNTVYLQMNSLKPEDTAIYYCAARPSIRCASFSATEYKDWGQGTQVTVSSTGGGGSGGGGSGGGGTGQVQLQESGGGLVQAGGSLRLSCAASGRTFSEYAMGWFRQAPGKEREFVATISWSGGSTYYTDSVKGRFTISRDNAKNTVYLQMNSLKPDDTAVYYCAAAGLGTVVSEWDYDYDYWGQGTQVTVSS
# Molecular target: hyper-IL-6 (HIL-6)
# Assay: SPR
# Chain of hyper-IL-6 (HIL-6) (A0N0L4 whole entry): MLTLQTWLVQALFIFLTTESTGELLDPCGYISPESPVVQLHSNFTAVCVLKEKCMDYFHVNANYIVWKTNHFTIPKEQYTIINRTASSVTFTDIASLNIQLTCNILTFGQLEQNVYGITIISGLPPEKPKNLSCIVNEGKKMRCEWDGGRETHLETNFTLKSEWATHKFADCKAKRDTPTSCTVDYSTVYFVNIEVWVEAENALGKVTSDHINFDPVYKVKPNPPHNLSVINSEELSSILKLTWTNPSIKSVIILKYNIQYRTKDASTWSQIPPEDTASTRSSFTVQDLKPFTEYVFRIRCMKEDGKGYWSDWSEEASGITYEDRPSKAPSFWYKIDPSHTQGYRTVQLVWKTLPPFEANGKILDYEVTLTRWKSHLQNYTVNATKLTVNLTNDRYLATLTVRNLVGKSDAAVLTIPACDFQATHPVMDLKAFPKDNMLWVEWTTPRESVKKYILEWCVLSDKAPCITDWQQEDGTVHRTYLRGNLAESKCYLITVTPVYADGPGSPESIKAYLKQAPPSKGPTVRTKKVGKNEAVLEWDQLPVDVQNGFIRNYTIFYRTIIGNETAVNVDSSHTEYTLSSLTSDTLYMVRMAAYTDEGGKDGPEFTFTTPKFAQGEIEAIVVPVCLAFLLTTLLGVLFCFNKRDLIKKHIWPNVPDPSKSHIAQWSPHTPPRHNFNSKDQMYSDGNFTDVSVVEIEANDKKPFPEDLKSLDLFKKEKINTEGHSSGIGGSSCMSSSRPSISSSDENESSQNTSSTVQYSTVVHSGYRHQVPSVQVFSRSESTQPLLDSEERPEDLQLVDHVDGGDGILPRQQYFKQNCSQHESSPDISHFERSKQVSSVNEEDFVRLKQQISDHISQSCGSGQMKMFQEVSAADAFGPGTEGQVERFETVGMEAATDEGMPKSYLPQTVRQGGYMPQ
binder,measurement,value
B1,Kd,0.055 nM
same,koff,7.1e-05 s⁻¹

# Reference: publication PMC8865451 (Journal of Virology, 2021)
